In the RNAGym collection of RNA variant scans (doi:10.1073/pnas.2313332121):

B1: TPR t1 (parent)
chain: GACCAAUCUGCCCUCAGAGCUCGAGAACAUCUUCGGAUGCAGAGGAGGCAGGCUUCGGUGGCGCGAUAGCGCCAACGUCCUCAACCUCCAAUGCAUCCCACCACAUGAUGAUGCCUGAAGAGCCUUGGUUUUUUG

Variants of: B1
Test: polymerase ribozyme fitness, log enrichment relative to wild type (log ratio); higher = more active; in vitro selection for triplet polymerase activity
Method in brief: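 Mutant libraries of each subunit of a heterodimeric triplet polymerase ribozyme were built by PCR and transcribed. Each library went through one round of in vitro selection in triplicate: annealing with biotinylated primer, partner subunit and triplets, frozen incubation at −7 °C, gel excision of extended constructs, streptavidin-bead capture and RT-PCR. Input and output libraries were Illumina-sequenced; only genotypes with ≥10 input reads and ≥1 read per output were kept. Fitness is log2(genotype enrichment/wild-type enrichment), using inverse-variance-weighted replicate averages.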

Variant | polymerase ribozyme fitness (log ratio)
GACCAAUCUGCCCUCAGAGCUCGAGAACAUCUUCGGAUGCAGAGGAGGCAGGCUUCGGUGGCGCGAUAGCGCCAACGUCCUCAACCUCCAAUCCAUCCCAACACAUGAUGAUGCCUGAAGAGACAUGGUUAUUUG [G93C C101A C123A U125A U131A] | -1.5
GACCAAUCUGCCCUCAGAGCUCGAGAACAUCGUCGGAUGCAGAGGAGGCAGGCUUUGGUGGCGCGAUAGCGCCAACGUCCUCAACCUCCAAUGCAUCCCACCACAUGAAGAUGCCUGAAGAGCUUUGGUUUUUUG [U32G C56U U109A C124U] | -6.14
GACCAAUCUGCCCUCAGAGCUCGAGAACAUCUUCGGAUGCAGAGGAGGCAGGCUUCGGUGGCGCGAUAGCGCCAACGUCCUCAACCUCCAAUGAAUCCCACCACAUGAUGAUGCCUGAAGAGCCUUGAGUUUUUG [C94A G128A U129G] | -3.11
GACCAAUCUGCCCUCAGAGCUCGAGAACAUCUUCGGAUGUAGAGGAGGCAGGCUUCGGUGGCGCGAUAGCGCCAACGCCCUCAACCUCCAAUGCAUCCCACCACAUGAUGAUGCCUGAAGAGCCUUGGUUUAUUG [C40U U78C U132A] | -1.65
GACCAAUCUGCCCUCAGAGCUCGAGAACAUCUUCGGAUGCAGAGCAGGCAGGCUUCGGUGGCGCGAUAGCGCCAACGUCCUCAACCUCCAAUGCAUCCCGCCACAUGAUGAUGCCUGAACAGCCUUGGUUUUUUG [G45C A100G G120C] | -3.59
GACCAAUCUGCCCUCAGAGCUCGAGAACAUCUUCGGAUGCAGAGGAGGCAGGCGUGGGUGGCGCGAUAGCGACAACGUCCUCAACCUCCAAUACAUCCCACCACAUGAUGAUGCCUGAAGAGCCUUGGUUUUUUG [U54G C56G C72A G93A] | -4.53
GACCAAUCUGCCCUCAGAGCUCGAGAACAUCUUCGGAUGCAGAGGAGGCAGGCUUCGGUGGCGCGAUAGAGCCAACGUCCUCAACCUCCAAUGUAUCCCCCCACAUGAUGAUGCCUGAAGAGCCUUGGUUUUUUG [C70A C94U A100C] | -2.44
GACCAAUCUGCCCUCAGAGCACGAGAACAUCUUCGGAUGCAGAGGAGGCAGGCUUCGGUGGUGCGAUAGCGCCAACGUCCUCAACCUCCAACGCAUCCCACCACAUGAUGAUGCCCGAGGAGCCUUGGUUUUUUG [U21A C62U U92C U116C A119G] | 0.3
GACCAAUCUGCCCUCAGAGCUCUAGGACAUCUUCGGUUGCAGAGGAGGCAGGCUUCGGUGGCGCGAUAUCGCCAACGUCCUCAACCUCCAAUGCAUCCCACCACAUGAUGAUGCCUGAAGAGCCUUGGUUUUUUG [G23U A26G A37U G69U] | -5.18
GACCAAUCUACCCUCAGAGCUCGAGAACAUCUUCGGAUGAAGAGGAGGCAGGCUUCGGUGGCGCGAUAGCGACAACGUCCUCAACCUCCAAUGCAUCCCACCACAUGAUGCUGCCUGAAGAGCCUUGGUUUUUUG [G10A C40A C72A A111C] | -1.19
GACCAAUCUGUCCUCAGAGCUCGAGAACAUCUUUGGAUGCAGAGGAGGCAGGCUUCGGUGGCGCGAUAGCGCCAACGUCCUCAACCUCCAAUGCAUCCCACCACAUGAUGAUGCCUGAAGAGCCUUGGUUUUUUG [C11U C34U] | -3.97
GACCAAUUUGCCCUCAGAGCUCGAGAACAUCUUCGGAUGCAGAGGAGGCAGGCUUCGGUGGCGCGAUAGAGCCAACGUCCUCAACCUCCAAUGCAUCCCACCACAUGAUGAUGCCUGAAGAGCCUUGGUUUUUUG [C8U C70A] | -1.06
GACCAAUCUGCUCUCAGAGUUCGAGAACAUCUUCGGAUGUAGAGGAGGGAGGCUUCGGUGGCGCGAUAGCGCCAACGUCCUCAACCUCCAAUGCAUCCCACCACAUGAUGAUGCCUGAAGAGCCUUGGUUUUUUG [C12U C20U C40U C49G] | -1.67
GACCAAUGUGCCCUCAGAGCUCGAGAACAUCUUCGGAUGCAGAGGAGGCAGGCUUAGGUGGCGCGAUAGCGCCAACGUCCUCAACCUCCAAUGCAUCCCACCACAUGAUGAUGCCUGAAGAGACUUGGUUUUUUG [C8G C56A C123A] | 1.29
GACCAAUCUGCCCUCAGAGCUCGAGAACAUCUUCGGAUGCAGAGGAGGCAGGCUUCGGUGGCGCGAUAGCGCCAACGUCCUCAACCUCCAAUGCAUCCCACCACAUGAUGAUGCCUGAAGAGCCUUGGAUUUUUG [U129A] | -1.11
GACCAAUCUGCCCUCAGAGCUCGAGAACAUCUUCGGAUGCAGAGGAGGCAGGCUUCGGUGGCGCGAUAGCGCCAACGUCCUCAACCUCCAAUGCAUCCCACCACAUGAUGAUGCCGGAAGAGCCUUGUUUUUUUG [U116G G128U] | -4.55
GACCGUUCUGCCCUCAGAGCUCGAGAACAUCUUCGGAUGCAGAGGGGGCAGGCUUCGGUGGCGCGAUAGCGCCAACGUCCUCAACCUCCAAUGCAUCCCACCACAUGAUGAUGCCUGAAGAGACUUGGUUUUUUG [A5G A6U A46G C123A] | 0.996
GACCAAUCUGCCCUCAGAGCUCGAGAACAUCUUCGGAUGCAGAGGAGGCAGGCUUCGGUGGCGCGAUAGCGCCAACGUCCUCAACCUCGAAUGGAUCCCACCACAUGAUGAUGCCUGAAGAGCCUUGGUUUUUUG [C89G C94G] | -3.06
GACCAAUCUGUCCUCAGAGCUCGAGAACAUCUUCGGAUGCAGAGGAGGCAGGCUUAGGUGGCGCGAUAGCGCCAACGUCCUCAACCUCCAAUGCAUCCCACCAAAUGAUGAUGCGUGAAGAGCCUUGGUUUUUUG [C11U C56A C104A C115G] | -6.27
GACCAAUCUGCCCUCAGCGCUCGAGAACAUCUUCGGAUGCAGAGGAGGCAGGCUUCGGUGGCCCGAUAGCGCCAACGUCCUCAACCUUCAAUGCAUGCCACUACAUGAUGAUGCCUGAAGAGUCUUGGUUUUUUG [A18C G63C C88U C97G C102U C123U] | -6.68
GACCAAUCUGCGCUCAGAGCUCGAGAACAUCUUCGGAUGCAGAGGAGGCAGGCCUCGGUGCCGCGAUAGCGCCAACGUCCUCAACCUCCAAUGCAUCCCACCACAUGAUGAUGCCUGAAGAGCCUUGGUUUUUUG [C12G U54C G61C] | -2.85

Variant | polymerase ribozyme fitness (log ratio)
GACCAAUCUGCCCUCAGAGCUCGAGAACAUCUUCGGAUGCAGAGGAGCCAGGCUUCGGCGGCGCGAUAGCGCCAACGUCCUCCACCUCCAAUGCAUCCCACCACAUGAUGAUGACUGAAGAGCCUUGGUUUUUUG [G48C U59C A83C C114A] | -2.11
GACCAAUCUGCCCUCAGAGCUCGAGAACAUCUUCGGAUGCAGAGGAUGCAGGCUUCGGUGGCGUGAUAGCGCCAACGUCCUCAACCUCCAAUGCAUCCCACCACAUGAUGAUGCCUGAAGAGCCUUGGUUUUUUG [G47U C64U] | -1.51
GACCAAUCUGCCCUCAGAGCUCCAGGACAUCUUCGGAUGCAGAGGAGGCAGGCUUCGGUGGCGCGAUAGCGCCAACGUCCUCAACCUCCAAUGCAUCCCACCACAUGAUGAUGCCUGAAGAGCUUUGGUUUUUUG [G23C A26G C124U] | -5.18
GACCAACCUGCCCUCAGAGCUCGAGAACAUCUUCGGAUACAGAGGAGGCAGGCUUCGGUGGCGCGAUAGCGCCAACGUCCUCAACCUCCAAUGCAUCCCACCACAUGAUGAUGCCUGAAGAGCUUUGGUUUUUUG [U7C G39A C124U] | 0.776
GACCAAUCUGCCCUCAGAGCUCGAGAACAUCUUCGGAUGCACAGGAGGCAGGCUUCGGUGGCGCGAUAGCGGCAACGUCCUCAACCUCCAAUGCAUCCCACCACAUGAUGAUGCCUGAAGAGCCUUGGUUUUUUG [G42C C72G] | -1.76
GACCAAUCUGCCCUUAGAGCUCGAGAACAUCUUCGGAUGCAGAGGAGGCAGGCUUCGGUGGCGCGAUAGCGCCAACGUCCUCAACCACCAAUGCAUCCCACCACAUGAUGAUGCCUGAAGAGCCUUGGUUUUUUG [C15U U87A] | -2.53
GACCAAUCUGCCCUCAGAGCUCGAGAACAUCUUCGGAUGCUGAGGAGGCAGGCCUCGGUGGCGCGAUAGCGCCAGCGUCCUCAACCUACAAUGCAUCCCACCACAUGAUGAUGCCUGAAGAGCCUUGGUUUUAUG [A41U U54C A75G C88A U133A] | -1.96
GACCAAUCUGCUCUCAGAGCUCGAGAACAUCUUAGGAUGCAGAGGAGGCAGGUUUCGGUGGCGCGAUAGCGUCAACGUCCUCAACCUCCAAUGCAUCCCACCACAUGAUGAUGCCUGAAGAGCCUUGGUUUUUUG [C12U C34A C53U C72U] | -2.62
GACCAAUCUGCCCUCAGAGCUCGAGAACAUCUUCGGAUGCAGAGGAGGCAGGCUUAGGCGGCGCGAUAGCGCCAACGUCCUCAACCCCCAAUGCAUCCCACCACAUGAUGAAGCCUGAAGAGCCUUGGUUUUUUG [C56A U59C U87C U112A] | 0.408
GACCAAUGUGCCGUCAGAGCUCGAGAACAUCUUCGGAUGCAGAGGAGGCAGGCUUCGGUGGCGCGAUAGCGCCAACGUCCUCAACCUCCAAUGCAUCCCACCACAUGAUGAUGCCUGAAGAGCCUUGGUUUUUUG [C8G C13G] | 0.865
GACCAAUCUGCCCUCAGAGCUCGAGAACAUCUUGGGAUGCAGGGGAGGCAGGAUUCGGUGGCGCGAUAGCACCAACGUCCUCAACCUCCAAUGCAUCCCACCACAUGAUGCUGCCUGAAGAGGCUUGGUUUUUUG [C34G A43G C53A G71A A111C C123G] | -7.9
GACCAAUCUGCCCUCAGAGCUCGAGAACAUCUUCGGAUGCAGAAGAGGCAGGCUUCGGUGGCGCGAUAGCGCCAACGUCCUAAACCUCCAAUGCAUCCCACCACAUGAUGAUGCCUGAAGAGCCUUGGUUUUUUG [G44A C82A] | -1.69
GACCAAUCUGCCCUCAGAGCUCGAGAACAUCUUCGGAUGCAGAGGAGGCAGGCUUCGGUGGCGCGAUAGCGUCAACGUCCGCAACCACCAAUGCAUCCCACAACAUGAUGAUGCCUGAAGAGCCUUGGUUUUUUG [C72U U81G U87A C102A] | -7.12
GACCAAUCUGCCCUCAGAGCUCGAGAACAUCUUCGGAUGCAGAGGAGGCAGGCUUCUGUGGCGCGAUAGCGCCAACGUCCUCAACCUCCAAUGCAUCCCACCACAUGAUAAUGCCUGAAGAGCCUUAGUUUUUUG [G57U G110A G127A] | -2.29
GACCAAUCUGCCCUCAGAGCUCGAGAACAUCUUCGGAUGCAGAGUAGGCAGGCUUCGGUGGCGCGAUAGUGCCAACGUCCUCAAUCUCAAAUGCAUCCCACCAUAUGAUGAUGCCUGAAGAGCCUUGGUUUUUUG [G45U C70U C85U C89A C104U] | -5.61
GACCAAUAUGCCCUCAGAGCUCGAGAACAUCUUCGGAUGCAGAGGAGGCAGGCUUCGGUGGCGCGAUAGCGCCAACGUGCUCAAGCUCCAAUGCAUCCCACCACAUGAUGAUGCCUGAAGAGCCUUGGUUUUUUG [C8A C79G C85G] | -2.78
GACCAAUCUGUCCUCAGAGCUCGAGAACAUCUUCGGAUGCAGAGGAAGCAGGCUUCGGUGGCGCGAUAGCGCCAACGUCCUCAACCACCAAUUCAUCCCACCACAUGAUGAUCCCUGAAGAGCCUUGGUUUUUUG [C11U G47A U87A G93U G113C] | -4.49
GAUCAUUCUGCCCUCAGAGCUCGAGAACAUCUUCGGAUGCAGAGGAGGCAGUCUUCGGUGGCGCGAUAGCGCCAACGUCCUCAACCUCCAAUGCAUCCCACCACAUGAUGUUGCCUGUAGAGCCUUGGUUUUUUG [C3U A6U G52U A111U A118U] | -4.02
GACCAAUCUGCCCUCAGACCUAGAGAACAUCUUCGGAUGCAGAGGAGGCAGGGUUCGGGGGCGCGAUAGCGCCAACGUCCUCAACCUCCAAUGCAUCCCACCACAUGAUGAUGCCUGAAGAGACUUGGUUUUUUG [G19C C22A C53G U59G C123A] | -5.66
GACCAAUCUGCCCUCAGAGCUCGAGAACAUCUUCGGAUGCAGAGAAGGCAGGCUUCGGUGGCGCGAUAGCGCCAACGUCCUCAACCCCCAAUGCAUACCACCACAUGAUGAUGCCUGAAGAGCCUUGGUUUUUUG [G45A U87C C97A] | -3.81
GACCAAUCUGGCCUCAGAGCUCGAGAACAUCUUCGGAUGCAGAGGAUGCAGGCUUUGGUGGCGCGAUAGCGCCAACGUCCUCAACCUCCAAUGCAUCCCACCACAUGAUGACGCCUGAAGAACCUUGGUUUUUUG [C11G G47U C56U U112C G122A] | -0.322
